Measured values reported in publication PMC9676404, “Three-dimensional structure of a mycobacterial oligoribonuclease reveals a unique C-terminal tail that stabilizes the homodimer” (The Journal of Biological Chemistry, 2022).

Assays:
[1] = target: Ms_ornΔC (C-terminal deletion mutant of Ms_orn lacking residues 186-209) (Mycobacterium smegmatis mc2155); test: not stated; oligomeric state of purified Ms_ornΔC, shown in Fig. S3
[2] = target: Orn of Mycobacterium smegmatis (MSMEG_4724, clone B) (Mycobacterium smegmatis mc2155); test: SEC; Superdex-75 column, Ms_orn with increasing concentrations of Gdm-HCl
[3] = target: Orn of Mycobacterium smegmatis (MSMEG_4724, clone B) (Mycobacterium smegmatis mc2155); test: SEC; Superdex-75 (10/300) column, 20 mM Tris-HCl pH 8.5, 100 mM NaCl; elution volume compared with molecular weight standards
[4] = target: Orn of Mycobacterium smegmatis (MSMEG_4724, clone B) (Mycobacterium smegmatis mc2155); test: SEC-MALS; Superdex-75 (10/300) with in-line MALLS and refractive index detectors, room temperature, 20 mM Tris-HCl pH 8.5, 100 mM NaCl, 5% glycerol, 0.5 ml/min; 200 ul of 3 mg/ml Ms_orn or 6 mg/ml Eco_orn
[5] = target: the molecule itself; test: SEC; Superdex-75 (10/300) column, 20 mM Tris-HCl pH 8.5, 100 mM NaCl; elution volume compared with molecular weight standards

In the case of “Ms_ornΔC (C-terminal deletion mutant of Ms_orn lacking residues 186-209) (domain or fragment)”, the stoichiometry N [1] is reported as 2.

“Orn of Mycobacterium smegmatis (MSMEG_4724, clone B) (enzyme)” showed a stoichiometry N [2] of 2, a stoichiometry N [3] of 2 and a stoichiometry N [4] of 2.

B1: Orn of Escherichia coli (enzyme, Escherichia coli K-12, UniProt P0A784 1-181, looked up)
chain: MSANENNLIWIDLEMTGLDPERDRIIEIATLVTDANLNILAEGPTIAVHQSDEQLALMDDWNVRTHTASGLVERVKASTMGDREAELATLEFLKQWVPAGKSPICGNSIGQDRRFLFKYMPELEAYFHYRYLDVSTLKELARRWKPEILDGFTKQGTHQAMDDIRESVAELAYYREHFIKL
notes: Oligoribonuclease (Orn) of Escherichia coli K-12; open reading frame of orn amplified from genomic DNA; residues 2-181 traced in the structure; also called oligoribonuclease; not shown: His10-Smt3, N-terminal, cleaved
In the case of B1, the “stoichiometry N” value [5] is reported as 2.
